Source: the Human Domainome abundance scans (Beltran et al. 2025)
± gives the uncertainty stated by the source.

B1: Dynamin-binding protein, residues 242 to 304; numbered along this chain, Q6XZF7 (parent)
chain: EEPGTYGVALYRFQALEPNELDFEVGDKIRILATLEDGWLEGSLKGRTGIFPYRFVKLCPDTR

Variants of: B1
Test: abundance fitness (aPCA) (normalised: wild type 0, dead -1); higher = more abundant; growth selection in yeast, the domain comes from the species named
Details: Homo sapiens

Variant	abundance fitness
HEPGTYGVALYRFQALEPNELDFEVGDKIRILATLEDGWLEGSLKGRTGIFPYRFVKLCPDTR [E1H]	-0.8 ± 0.18
EEPGTYGVALYRFQALEPNELDFEVGDKIRILATLEDNWLEGSLKGRTGIFPYRFVKLCPDTR [G38N]	-0.539 ± 0.1
EEPGTYGVALYRFQALEPNELDFEVGDKIRILATLEDGWLEGSLKGRTGIFNYRFVKLCPDTR [P52N]	-0.767 ± 0.11
EEPGTYGVALYRFQALEPNELDFEVGDKIRILATLEDGWLEGSLKGRTGIFTYRFVKLCPDTR [P52T]	-0.783 ± 0.13
EEPGTYGVALYRFQALEPNELDFEVGDKIRILATLEDGWLEGSLKGRTGIFPYRNVKLCPDTR [F55N]	-0.399 ± 0.044
EEPGTYGVALYRFQATEPNELDFEVGDKIRILATLEDGWLEGSLKGRTGIFPYRFVKLCPDTR [L16T]	0.344 ± 0.062
EEPGTYEVALYRFQALEPNELDFEVGDKIRILATLEDGWLEGSLKGRTGIFPYRFVKLCPDTR [G7E]	-0.209 ± 0.18
EEPGTYGVALYRFQALEPNELDFEVGDKIRIDATLEDGWLEGSLKGRTGIFPYRFVKLCPDTR [L32D]	-0.495 ± 0.069
EEPGTYGVALYRFQALEPNELDFEVGDKIRIWATLEDGWLEGSLKGRTGIFPYRFVKLCPDTR [L32W]	-0.784 ± 0.2
EEPGTYGVALYRFQALEPNELDFEVGDKIRITATLEDGWLEGSLKGRTGIFPYRFVKLCPDTR [L32T]	-0.312 ± 0.073
EEPGTYGVALYRFQALEPNELDFEVGDKIRIPATLEDGWLEGSLKGRTGIFPYRFVKLCPDTR [L32P]	-0.687 ± 0.15
EEPGTYGVALYRFQALEPNELDFEVGDKIRIYATLEDGWLEGSLKGRTGIFPYRFVKLCPDTR [L32Y]	-0.744 ± 0.11
EEPGTYGVALYRFQALEPNELDFEVGDKIRINATLEDGWLEGSLKGRTGIFPYRFVKLCPDTR [L32N]	-0.097 ± 0.055
EEPGTYGVALYRFQALEPNELDFEVGGKIRILATLEDGWLEGSLKGRTGIFPYRFVKLCPDTR [D27G]	-0.776 ± 0.083
EEPGTYGVALARFQALEPNELDFEVGDKIRILATLEDGWLEGSLKGRTGIFPYRFVKLCPDTR [Y11A]	0.217 ± 0.061
EEPGTYGQALYRFQALEPNELDFEVGDKIRILATLEDGWLEGSLKGRTGIFPYRFVKLCPDTR [V8Q]	-0.449 ± 0.35
EEPGTYGVALYRAQALEPNELDFEVGDKIRILATLEDGWLEGSLKGRTGIFPYRFVKLCPDTR [F13A]	-0.804 ± 0.16
EEPGTYGVALYRQQALEPNELDFEVGDKIRILATLEDGWLEGSLKGRTGIFPYRFVKLCPDTR [F13Q]	-0.212 ± 0.2
EEPGRYGVALYRFQALEPNELDFEVGDKIRILATLEDGWLEGSLKGRTGIFPYRFVKLCPDTR [T5R]	-0.225 ± 0.072
EEPGTYGVALYRFQALEKNELDFEVGDKIRILATLEDGWLEGSLKGRTGIFPYRFVKLCPDTR [P18K]	-0.336 ± 0.17
EEPGTYGVALYRFQALEFNELDFEVGDKIRILATLEDGWLEGSLKGRTGIFPYRFVKLCPDTR [P18F]	-0.659 ± 0.095
EEPGTYGVALYRFQALEPNGLDFEVGDKIRILATLEDGWLEGSLKGRTGIFPYRFVKLCPDTR [E20G]	-0.246 ± 0.057

Variant	abundance fitness
EEPGTYGVALYRFQALEPNTLDFEVGDKIRILATLEDGWLEGSLKGRTGIFPYRFVKLCPDTR [E20T]	0.06 ± 0.069
EEPGTYGVALYRFQALEPNRLDFEVGDKIRILATLEDGWLEGSLKGRTGIFPYRFVKLCPDTR [E20R]	-0.258 ± 0.062
EEPGTYGVALYRFQALEPNELMFEVGDKIRILATLEDGWLEGSLKGRTGIFPYRFVKLCPDTR [D22M]	-0.301 ± 0.13
EEPGTYGVALYRFQALEPNELDSEVGDKIRILATLEDGWLEGSLKGRTGIFPYRFVKLCPDTR [F23S]	-0.527 ± 0.061
EEPGTYGVALYRFQALEPNELDFEVGDKIRILQTLEDGWLEGSLKGRTGIFPYRFVKLCPDTR [A33Q]	-0.188 ± 0.14
EEPGTYGVALYRFQALEPNELDFEVGDKIRILSTLEDGWLEGSLKGRTGIFPYRFVKLCPDTR [A33S]	0.043 ± 0.054
EEPGTYGVALYRFQALEPNELDFEVGDKIRILWTLEDGWLEGSLKGRTGIFPYRFVKLCPDTR [A33W]	-0.671 ± 0.26
EEPGTYGVALYRFQALEPNELDFEVGDKIRILATLEDGWYEGSLKGRTGIFPYRFVKLCPDTR [L40Y]	-0.259 ± 0.061
EEPGTYGVALYRFQALEPNELDFEVGDKIRILATLEDGWPEGSLKGRTGIFPYRFVKLCPDTR [L40P]	-0.642 ± 0.12
EEPGTYGVALYRFQALEPNELDFEVGDKIRILATLEDGWLWGSLKGRTGIFPYRFVKLCPDTR [E41W]	0.056 ± 0.13
EEPGTYGVALYRFQALEPNELDFEVGDKIRILATLEDGWLRGSLKGRTGIFPYRFVKLCPDTR [E41R]	-0.019 ± 0.064
EEPGTYGVALYRFQALEPNELDFEVGDKIRILATLEDGWLMGSLKGRTGIFPYRFVKLCPDTR [E41M]	0.073 ± 0.2
EEPGTYGVALYRFQALEPNELDFEVGDKIRILATLEDGWLHGSLKGRTGIFPYRFVKLCPDTR [E41H]	-0.072 ± 0.065
EEPGTYGVALYRFQALEPNELDFEVGDKIRFLATLEDGWLEGSLKGRTGIFPYRFVKLCPDTR [I31F]	-0.926 ± 0.12
EEPGTYGVALYRFQALEPNELDFEVGDKIRALATLEDGWLEGSLKGRTGIFPYRFVKLCPDTR [I31A]	-1.03 ± 0.21
EEPGTYGVALYRFQALEPNELDFEVGDKIRPLATLEDGWLEGSLKGRTGIFPYRFVKLCPDTR [I31P]	-0.862 ± 0.2
EEPGTYGVALYRFQALEPNELDFEVGDKIRILATLEDGWLEGSLKGRTGIFPYRFVKACPDTR [L58A]	-0.594 ± 0.082
EEPGTYGVALYRFQCLEPNELDFEVGDKIRILATLEDGWLEGSLKGRTGIFPYRFVKLCPDTR [A15C]	-0.617 ± 0.076
EEPGTYGVALYPFQALEPNELDFEVGDKIRILATLEDGWLEGSLKGRTGIFPYRFVKLCPDTR [R12P]	-0.126 ± 0.1
EEHGTYGVALYRFQALEPNELDFEVGDKIRILATLEDGWLEGSLKGRTGIFPYRFVKLCPDTR [P3H]	0.088 ± 0.066
EEPGTYGVALYRFQALEPNELDFEVGDKIRILATLEDGWLEGSLKGRTGIFPYRFVKLCFDTR [P60F]	-0.149 ± 0.061
EEPGTYGVALYRFQALEPNEMDFEVGDKIRILATLEDGWLEGSLKGRTGIFPYRFVKLCPDTR [L21M]	-0.852 ± 0.32

Variant	abundance fitness
EEPGTYGVALYRFQALEPRELDFEVGDKIRILATLEDGWLEGSLKGRTGIFPYRFVKLCPDTR [N19R]	-0.167 ± 0.069
EEPGTYGVALYRFQALEPNELDFFVGDKIRILATLEDGWLEGSLKGRTGIFPYRFVKLCPDTR [E24F]	-0.301 ± 0.067
EEPGTYGVALYRFQALEPNELDFEVGDKIRILATLEDGWLEGSLKGRGGIFPYRFVKLCPDTR [T48G]	-0.685 ± 0.095
EEPGTYGVALYRFQALEPNELDFEVGDKIRILATLEDGWLEGSLKGCTGIFPYRFVKLCPDTR [R47C]	-0.578 ± 0.086
EEPGTYGVALYRFQALEPNELDFEVGDKIRILATLEDGWLEGSLKGKTGIFPYRFVKLCPDTR [R47K]	0.115 ± 0.2
EEPGTYGVALYRFQALEPNELDFEVGDKIRILATLEDGWLEGSLKGRTGIFPYRFVKLCPDHR [T62H]	0.044 ± 0.054
EEPGTYGVALYRFQALEPNELDFEVGDKIRILATLEDGWLEGSLKGRTGIFPYRFVKLCPDGR [T62G]	0.046 ± 0.049
EEPGTYGVALYRFQALEPNELDFEVGDKIRILATLEDGWLEGSLKGRTGNFPYRFVKLCPDTR [I50N]	-0.43 ± 0.077
EEPGTYGVALYRFQALEPNELDFEVGDKIRILATLEDGWLEGSLKGRTGHFPYRFVKLCPDTR [I50H]	-0.681 ± 0.12
EEPGTYGVALYRFQALEPNELDFEVGDKIRILATLEDGWLEGSLKGRTWIFPYRFVKLCPDTR [G49W]	-0.601 ± 0.35
EEPGTYGVALYRFQALEPNELDFEVGDKIRILATLEDGWLEGSLKGRTNIFPYRFVKLCPDTR [G49N]	-0.499 ± 0.094
EEPGTYGVALYRFQALEPNELDFEVGDKIRILATLEDGWLEGSLKGRTHIFPYRFVKLCPDTR [G49H]	-0.807 ± 0.17
EEPFTYGVALYRFQALEPNELDFEVGDKIRILATLEDGWLEGSLKGRTGIFPYRFVKLCPDTR [G4F]	0.009 ± 0.051
EEPTTYGVALYRFQALEPNELDFEVGDKIRILATLEDGWLEGSLKGRTGIFPYRFVKLCPDTR [G4T]	0.103 ± 0.077
EKPGTYGVALYRFQALEPNELDFEVGDKIRILATLEDGWLEGSLKGRTGIFPYRFVKLCPDTR [E2K]	-0.512 ± 0.22
EEPGTLGVALYRFQALEPNELDFEVGDKIRILATLEDGWLEGSLKGRTGIFPYRFVKLCPDTR [Y6L]	-0.309 ± 0.066
EEPGTFGVALYRFQALEPNELDFEVGDKIRILATLEDGWLEGSLKGRTGIFPYRFVKLCPDTR [Y6F]	0.071 ± 0.048
EEPGTYGVALYRFQALEPNELDFEVGDKIRILATLEDGWLEGSLKGRTGIFPYIFVKLCPDTR [R54I]	-0.545 ± 0.13
EEPGTYGVALYRFQALEPNELDFEVGDKIRILATLEDGWLEGSLKGRTGIFPYSFVKLCPDTR [R54S]	0.046 ± 0.048
EEPGTYGVTLYRFQALEPNELDFEVGDKIRILATLEDGWLEGSLKGRTGIFPYRFVKLCPDTR [A9T]	-0.623 ± 0.15
EEPGTYGVALYRFQALEPNELDFEVGDKIPILATLEDGWLEGSLKGRTGIFPYRFVKLCPDTR [R30P]	-0.15 ± 0.17
EEPGTYGVALYRFQALEPNELDFEVGDKIRILATLEDGWLEGSLKGRTGIFPYRFVYLCPDTR [K57Y]	-0.411 ± 0.059

Variant	abundance fitness
EEPGTYGVALYRFQALEPNELDFEVGDKIRILATLVDGWLEGSLKGRTGIFPYRFVKLCPDTR [E36V]	-0.777 ± 0.093
EEPGTYGVALYRFQALEPNELDFEVGDKIRILATLEDGWLEGSLKGRTGIFPYRFVKLCPDTE [R63E]	-0.455 ± 0.29
EEPGTYGVALYRFQALEPNELDFEVGDKIRILATLEDGWLEGSLKGRTGIFPYRFVKLCPETR [D61E]	0.186 ± 0.095
EEPGTYGVALYRFQALEPNELDFEVCDKIRILATLEDGWLEGSLKGRTGIFPYRFVKLCPDTR [G26C]	-0.334 ± 0.054
EEPGTYGVALYRFQALLPNELDFEVGDKIRILATLEDGWLEGSLKGRTGIFPYRFVKLCPDTR [E17L]	-0.011 ± 0.05
EEPGTYGVALYRFQALEPNELDFEVGDKIRILATLEDGWLEGSTKGRTGIFPYRFVKLCPDTR [L44T]	-0.416 ± 0.14
EEPGTYGVALYRFQALEPNELDFEVGDQIRILATLEDGWLEGSLKGRTGIFPYRFVKLCPDTR [K28Q]	-0.604 ± 0.2
EEPGTYGVALYRFQALEPNELDFEVGDGIRILATLEDGWLEGSLKGRTGIFPYRFVKLCPDTR [K28G]	-0.711 ± 0.074
EEPGTYGVALYRFQALEPNELDFEVGDKIRILATLEDGWLEGSLKGRTGIFPSRFVKLCPDTR [Y53S]	0.329 ± 0.044
EEPGTYGVALYRFQALEPNELDFEVGDKIRILATLEDGTLEGSLKGRTGIFPYRFVKLCPDTR [W39T]	-0.492 ± 0.096
EEPGTYGVALYRFQALEPNELDFEVGDKIRILATLEDGNLEGSLKGRTGIFPYRFVKLCPDTR [W39N]	-0.406 ± 0.068
EEPGTYGVALYRFQALEPNELDFEVGDKIRILATLEDGDLEGSLKGRTGIFPYRFVKLCPDTR [W39D]	-0.661 ± 0.11
EEPGTYGVALYRFQALEPNELDFEVGDKIRILAALEDGWLEGSLKGRTGIFPYRFVKLCPDTR [T34A]	-0.33 ± 0.075
EEPGTYGVALYRFQALEPNELDFEVGDKIRILATLEDGWLEGSLKGRTGIIPYRFVKLCPDTR [F51I]	-0.752 ± 0.1
EEPGTYGVALYRFQALEPNELDFEVGDKIRILATLEDGWLEGSLKGRTGIRPYRFVKLCPDTR [F51R]	-0.655 ± 0.097
EEPGTYGVALYRFQALEPNELDFEVGDKIRILATLEDGWLEGSLKGRTGIWPYRFVKLCPDTR [F51W]	-0.59 ± 0.16
EEPGTYGVALYRFQALEPNELDFEVGDKIRILATLEDGWLEGSLKGRTGIFPYRFPKLCPDTR [V56P]	-0.334 ± 0.14
EEPGTYGVALYRFQALEPNELDFEVGDKIRILATLEDGWLEGSLKGRTGIFPYRFYKLCPDTR [V56Y]	-0.535 ± 0.094
EEPGTYGVALYRFQALEPNELDFEVGDKIRILATLEDGWLEGSLKGRTGIFPYRFRKLCPDTR [V56R]	-0.887 ± 0.14
